# Measured values reported in the MegaScale stability set (Tsuboyama et al. 2023).
# B1: EHEE_rd2_0191 (parent)
# chain: TTEYTFTDDEEARRAIEELKKRGLTFRYEKHGTTWRVRVD
# Variants of: B1
# Experiment: folding stability dG (cDNA display proteolysis); higher = more stable
# Settings: PBS, room temperature
row,Variant,folding stability dG [kcal/mol]
1,TTEYTFTDDEEMRRAIEELKKRGLTFRYEKHGTTWRVRVD [A12M],2.33
2,TTEYTFTDDEELRRAIEELKKRGLTFRYEKHGTTWRVRVD [A12L],2.53
3,TTEYTFTDDEESRRAIEELKKRGLTFRYEKHGTTWRVRVD [A12S],-0.064
4,TTEYTFTDDEERRRAIEELKKRGLTFRYEKHGTTWRVRVD [A12R],-0.372
5,TTEYTFTDDEEKRRAIEELKKRGLTFRYEKHGTTWRVRVD [A12K],-0.512
6,TTEYTFTDDEEIRRAIEELKKRGLTFRYEKHGTTWRVRVD [A12I],0.942
7,TTEYTFTDDEETRRAIEELKKRGLTFRYEKHGTTWRVRVD [A12T],0.424
8,TTEYTFTDDEEQRRAIEELKKRGLTFRYEKHGTTWRVRVD [A12Q],-0.999
9,TTEYTFTDDEEWRRAIEELKKRGLTFRYEKHGTTWRVRVD [A12W],1.63
10,TTEYTFTDDEEYRRAIEELKKRGLTFRYEKHGTTWRVRVD [A12Y],1.66
11,TTEYTFTDDEEVRRAIEELKKRGLTFRYEKHGTTWRVRVD [A12V],1.47
12,TTEYTFTDDEEARHAIEELKKRGLTFRYEKHGTTWRVRVD [R14H],1.82
13,TTEYTFTDDEEARGAIEELKKRGLTFRYEKHGTTWRVRVD [R14G],1.35
14,TTEYTFTDDEEARIAIEELKKRGLTFRYEKHGTTWRVRVD [R14I],1.93
15,TTEYTFTDDEEARTAIEELKKRGLTFRYEKHGTTWRVRVD [R14T],1.73
16,TTEYTFTDDEEARYAIEELKKRGLTFRYEKHGTTWRVRVD [R14Y],1.64
17,TTEYTFTDDEEARFAIEELKKRGLTFRYEKHGTTWRVRVD [R14F],1.64
18,TTEYTFTDDEEARAAIEELKKRGLTFRYEKHGTTWRVRVD [R14A],2.1
19,TTEYTFTDDEEARWAIEELKKRGLTFRYEKHGTTWRVRVD [R14W],1.68
20,TTEYTFTDDEEARQAIEELKKRGLTFRYEKHGTTWRVRVD [R14Q],1.9
21,TTEYTFTDDEEARMAIEELKKRGLTFRYEKHGTTWRVRVD [R14M],1.97

row,Variant,folding stability dG [kcal/mol]
1,TTEYTFTDDEEARVAIEELKKRGLTFRYEKHGTTWRVRVD [R14V],1.78
2,TTEYTFTDDEEAREAIEELKKRGLTFRYEKHGTTWRVRVD [R14E],1.7
3,TTEYTFTDDEEARLAIEELKKRGLTFRYEKHGTTWRVRVD [R14L],1.91
4,TTEYTFTDDEEARSAIEELKKRGLTFRYEKHGTTWRVRVD [R14S],1.75
5,TTEYTFTDDEEARDAIEELKKRGLTFRYEKHGTTWRVRVD [R14D],1.45
6,TTEYTFTDDEEARNAIEELKKRGLTFRYEKHGTTWRVRVD [R14N],1.84
7,TTEYTFTDDEEARKAIEELKKRGLTFRYEKHGTTWRVRVD [R14K],2.12
8,TTEYTFTDDEEARRFIEELKKRGLTFRYEKHGTTWRVRVD [A15F],4.89
9,TTEYTFTDDEEARRNIEELKKRGLTFRYEKHGTTWRVRVD [A15N],0.878
10,TTEYTFTDDEEARRIIEELKKRGLTFRYEKHGTTWRVRVD [A15I],2.02
11,TTEYTFTDDEEARRKIEELKKRGLTFRYEKHGTTWRVRVD [A15K],1.97
12,TTEYTFTDDEEARRRIEELKKRGLTFRYEKHGTTWRVRVD [A15R],1.08
13,TTEYTFTDDEEARREIEELKKRGLTFRYEKHGTTWRVRVD [A15E],0.719
14,TTEYTFTDDEEARRTIEELKKRGLTFRYEKHGTTWRVRVD [A15T],1.94
15,TTEYTFTDDEEARRWIEELKKRGLTFRYEKHGTTWRVRVD [A15W],2.9
16,TTEYTFTDDEEARRYIEELKKRGLTFRYEKHGTTWRVRVD [A15Y],2.87
17,TTEYTFTDDEEARRSIEELKKRGLTFRYEKHGTTWRVRVD [A15S],1.07
18,TTEYTFTDDEEARRQIEELKKRGLTFRYEKHGTTWRVRVD [A15Q],1.29
19,TTEYTFTDDEEARRVIEELKKRGLTFRYEKHGTTWRVRVD [A15V],2.36
20,TTEYTFTDDEEARRLIEELKKRGLTFRYEKHGTTWRVRVD [A15L],2.63
21,TTEYTFTDDEEARRMIEELKKRGLTFRYEKHGTTWRVRVD [A15M],2.85

row,Variant,folding stability dG [kcal/mol]
1,TTEYTFTDDEEARRCIEELKKRGLTFRYEKHGTTWRVRVD [A15C],3.17
2,TTEYTFTDDEEARRHIEELKKRGLTFRYEKHGTTWRVRVD [A15H],1.73
3,TTEYTFTDDEEARRGIEELKKRGLTFRYEKHGTTWRVRVD [A15G],1.06
4,TTEYTFTDDEEARRAAEELKKRGLTFRYEKHGTTWRVRVD [I16A],-0.729
5,TTEYTFTDDEEALRAIEELKKRGLTFRYEKHGTTWRVRVD [R13L],2.3
6,TTEYTFTDDEEAGRAIEELKKRGLTFRYEKHGTTWRVRVD [R13G],1.44
7,TTEYTFTDDEEAYRAIEELKKRGLTFRYEKHGTTWRVRVD [R13Y],2.2
8,TTEYTFTDDEEADRAIEELKKRGLTFRYEKHGTTWRVRVD [R13D],0.9
9,TTEYTFTDDEEASRAIEELKKRGLTFRYEKHGTTWRVRVD [R13S],1.55
10,TTEYTFTDDEEAVRAIEELKKRGLTFRYEKHGTTWRVRVD [R13V],1.69
11,TTEYTFTDDEEAFRAIEELKKRGLTFRYEKHGTTWRVRVD [R13F],2.31
12,TTEYTFTDDEEAWRAIEELKKRGLTFRYEKHGTTWRVRVD [R13W],2.52
13,TTEYTFTDDEEAARAIEELKKRGLTFRYEKHGTTWRVRVD [R13A],1.85
14,TTEYTFTDDEEAERAIEELKKRGLTFRYEKHGTTWRVRVD [R13E],1.79
15,TTEYTFTDDEEAQRAIEELKKRGLTFRYEKHGTTWRVRVD [R13Q],1.94
16,TTEYTFTDDEEAIRAIEELKKRGLTFRYEKHGTTWRVRVD [R13I],2.1
17,TTEYTFTDDEEANRAIEELKKRGLTFRYEKHGTTWRVRVD [R13N],1.68
18,TTEYTFTDDEEATRAIEELKKRGLTFRYEKHGTTWRVRVD [R13T],1.83
19,TTEYTFTDDEEAHRAIEELKKRGLTFRYEKHGTTWRVRVD [R13H],1.98
20,TTEYTFTDDEEAMRAIEELKKRGLTFRYEKHGTTWRVRVD [R13M],2.42
21,TTEYTFTDDEEAKRAIEELKKRGLTFRYEKHGTTWRVRVD [R13K],2.04
